Tested on: B82L fibroblasts
Experiment: B82L cell attachment and spreading
Type: cell-based, mouse
Details: for cell attachment and spreading on VN: 5 μg/mL VN, S1ED 1-30 μM, GST and GST-mS4ED 30 μM
Source text: FIGS. 11A-F—Downregulation of mouse Sdc-1 expression by siRNA blocks αvβ5-dependent cell attachment and spreading on VN. FACS analysis for (FIG. 11A) mouse syndecan-1 (mAb 281.2), (FIG. 11B) αv integrin subunit (mAb H9.2B8), (FIG. 11C) mouse Syndecan-4 (mAb KY8.2), (FIG. 11D) human syndecan-1 (mAb B-B4) and (FIG. 11E) FcR^ecto-hS1 chimera (FITC-conjugated hIgG) expression against isotype IgG controls (red-fill) in vector^NEO (FIGS. 11A-C), human syndecan-1 (FIG. 11D) and FcR^ecto-hS1 (FIG. 11E) expressing B82L cells 48 h after transfection with either 600 nM control (Control) or mouse syndecan-1-specific siRNA (siRNA). (FIG. 11F) B82L^NEO empty vector-transfected control cells and B82L cells expressing human syndecan-1 or the FcR^ecto-hS1 chimera were transfected with control or mouse syndecan-1-specific siRNA and seeded on wells coated with either 5 μg/mL VN alone or a mixed substratum of VN plus 60 μg/mL of antibody directed against mouse syndecan-1 (281.2), human syndecan-1 (B-B4) or the FcR^ecto-hS1 chimera (hIgG). Cells were incubated at 37° C. for 2 h, fixed, and stained with rhodamine-conjugated phalloidin.
FIGS. 12A-B—B82L cell spreading on VN is blocked by recombinant Scd-1ED. (FIG. 12A) B82L fibroblasts were plated on 5 μg/mL VN in the absence of other treatment, or in the presence of 30 μM GST, 1-30 μM GST-mS1ED or 30 μM GST-mS4ED (inset), then fixed and stained with rhodamine-phalloidin for visualization. (FIG. 12B) Quantification of cell adhesion in triplicate samples (±S.E.) plated either with no additions, or concentrations of GST-mS1ED ranging from 0-30 μM. […]
The failure of NEO cells to engage the mixed substratum is indicative of the efficient blockade of mouse Sdc-1 expression by the siRNA. It is unlikely that the mouse Sdc-1-siRNA treatment has any non-specific cellular effects since spreading on VN is specifically rescued by the expression of full-length human Sdc-1 (hS1, FIG. 11F). Spreading of the B82L-hS1 cells is indistinguishable from parental cells. However, spreading on VN is not recovered in cells expressing the FcR^ecto-hS1 chimera—a construct in which the syndecan's ectodomain is replaced by the ectodomain of the human Fcγ receptor Ia (FcR^ecto-hS1)—regardless of whether the cells are plated on VN alone, or VN supplemented with 60 μg/mL of hIgG to engage the FcR^ecto-hS1 construct.
Recombinant Sdc-1 ectodomain competitively blocks αvβ5 integin activity. To test whether soluble Sdc-1 ectodomain will compete with the syndecan activation of the αvβ5 integrin, B82L cells were plated on 5 μg/mL VN in the presence of a recombinant GST fusion protein containing either the ectodomain of mouse Sdc-1 (GST-mS1ED) or human Sdc-1 (GST-hS1ED; data not shown).

B1: GST-mS1ED: recombinant mouse syndecan-1 ectodomain expressed as a fusion protein with GST (protein)
chain: QIVAVNVPPEDQDGSGDDSDNFSGSGTGALPDTLSRQTPSTWKDVWLLTATPTAPEPTSSNTETAFTSVLPAGEKPEEGEPVLHVEAEPGFTARDKEKEVTTRPRETVQLPITQRASTVRVTTAQAAVTSHPHGGMQPGLHETSAPTAPGQPDHQPPRVEGGGTSVIKEVVEDGTANQLPAGEGSGEQDFTFETSGENTAVAAVEPGLRNQPPVDEGATGASQSLLDRKEVLG
modifications: left off: a dimerising Fc or GST
notes: recombinant mouse syndecan-1 ectodomain expressed as a fusion protein with GST
cell attachment and spreading on VN: increasing blockade | lowest concentration tested at which competition occurs (cells plated on 5 μg/mL VN): 1 µM

B2: GST-mS4ED: recombinant GST fusion of mouse syndecan-4 ectodomain, specificity control (protein)
chain: ESIRETEVIDPQDLLEGRYFSGALPDDEDAGGSDDFELSGSGDLDDTEEPRPFPEVIEPLVPLDNHIPENAQPGIRVPSEPKELEENEVIPKRAPSDVGDDMSNKVSMSSTAQGSNIFERTE
modifications: left off: a dimerising Fc or GST
notes: recombinant GST fusion of mouse syndecan-4 ectodomain, specificity control
cell attachment and spreading on VN: without effect
